Experiment [1] addresses T1, human SIRPα variant 1 (human, UniProt P78324 31-504).
T1 construct: full length ORF on transfected CHO-K1 or HEK293 cells; entry includes the signal peptide; also called hSIRPαV1; SIRPαV1
The experiment is described as follows: flow cytometry, CHO-K1.hSIRPαV1 stable cells. The method, then:
Binding of the parental and humanized antibodies to hSIRPα was assessed by flow cytometry using the CHO-K1.hSIRPαV1 stable cell line. CHO-K1.hSIRPαV1 cells were seeded in 96-well round bottomed tissue culture plates and incubated for 40 minutes with the humanized hSIRPα.40A antibody variants (20 μg/mL and dilutions thereof) in PBS/1% BSA at 4° C. […] After this labeling procedure, cells were washed two times, resuspended in PBS/1% BSA, containing 0.1 μg/mL DAPI (BioLegend), and analysed by flow cytometry on the FACSVerse (BD Biosciences). Data were processed and analysed with FlowJo V10 software (FlowJo, LLC).
(In general: In flow cytometry, cells or beads pass a laser one at a time.)

In experiment [2] the target is T2, hSIRPα expressed on primary human cells (human, UniProt P78324 31-504).
T2 construct: whole, on cells; also called hSIRPα on primary human CD14+ monocytes; on primary human granulocytes
T2 sequence (P78324 31-504): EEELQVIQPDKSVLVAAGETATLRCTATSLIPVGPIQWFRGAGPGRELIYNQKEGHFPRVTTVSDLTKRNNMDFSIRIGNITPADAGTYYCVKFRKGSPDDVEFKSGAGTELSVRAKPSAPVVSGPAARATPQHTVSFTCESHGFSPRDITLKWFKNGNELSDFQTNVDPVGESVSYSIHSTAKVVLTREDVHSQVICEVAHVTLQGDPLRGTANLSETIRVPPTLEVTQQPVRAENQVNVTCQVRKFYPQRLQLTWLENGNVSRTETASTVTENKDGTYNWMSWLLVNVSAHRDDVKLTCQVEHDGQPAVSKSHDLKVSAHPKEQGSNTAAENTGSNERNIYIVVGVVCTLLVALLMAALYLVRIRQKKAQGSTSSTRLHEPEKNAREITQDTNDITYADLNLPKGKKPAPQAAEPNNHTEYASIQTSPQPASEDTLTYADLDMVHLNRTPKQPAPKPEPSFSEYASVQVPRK
The experiment is described as follows: flow cytometry on CD14+ enriched monocytes, human donor 1, AF647 goat-anti-mouse IgG. The method, then: Next, the binding of hSIRPα.40A to hSIRPα expressed on primary human CD14⁺ monocytes was investigated. In addition, the ability of hSIRPα.40A to block the interaction between hSIRPα and recombinant hCD47/Fc-protein was assessed. For this purpose, CD14+ monocytes were isolated from Ficoll-purified human peripheral blood mononuclear cells (PBMCs) using RosetteSep human monocyte enrichment cocktail (Stemcell). The percentage of monocytes present after the enrichment was determined by flow cytometry on the FACSVerse (BD Biosciences) based on CD14 staining using an APC-Cy7-conjugated mouse-anti-human CD14 detection antibody (BD Biosciences). […] After this labeling procedure, cells were washed two times, resuspended in PBS/1% BSA containing 0.1 μg/mL DAPI (BioLegend), and analysed by flow cytometry on the FACSVerse (BD Biosciences). Data were processed and analysed with FlowJo V10 software (FlowJo, LLC).
To assess the blocking ability of hSIRPα.40A, CD14+ enriched monocytes cells were seeded in 96-well round bottomed tissue culture plates and incubated for 45 minutes with FcR Blocking Reagent (Miltenyi Biotec) and hSIRPα.40A antibody (20 μg/mL and dilutions thereof) in PBS/1% BSA at 4° C. […] After this labeling procedure, cells were washed two times, resuspended in PBS/1% BSA containing 0.1 μg/mL DAPI (BioLegend), and analysed by flow cytometry on the FACSVerse (BD Biosciences). […]

Experiment [3] concerns the target T2, hSIRPα expressed on primary human cells. The experiment is described as follows: flow cytometry on CD14+ enriched monocytes, human donor 1; blocked ligand: DyLight 488-labeled recombinant hCD47/Fc. The method, then: To assess the blocking ability of hSIRPα.40A, CD14+ enriched monocytes cells were seeded in 96-well round bottomed tissue culture plates and incubated for 45 minutes with FcR Blocking Reagent (Miltenyi Biotec) and hSIRPα.40A antibody (20 μg/mL and dilutions thereof) in PBS/1% BSA at 4° C. […] After this labeling procedure, cells were washed two times, resuspended in PBS/1% BSA containing 0.1 μg/mL DAPI (BioLegend), and analysed by flow cytometry on the FACSVerse (BD Biosciences). Data were processed and analysed with FlowJo V10 software (FlowJo, LLC). […] IC50 values represent the concentration at which half of the inhibition is observed.

Experiment [4] deals with T1, human SIRPα variant 1. The experiment is described as follows: CELISA, CHO-K1 transfectants, point mutant study. The method, then:
To pinpoint the amino acids for interaction of hSIRPα.50A with the IgV domain, several point mutants of hSIRPαV1 were generated based on single amino acid differences between hSIRPαV1/V2 and hSIRPβ1. […] Amino acids in the hSIRPα IgV domain that are altered in hSIRPβ1 were mutated by using the QuikChange II Site-Directed Mutagenesis Kit (Stratagene) and the full length hSIRPαV1 sequence (SEQ ID NO: 33) as donor cDNA. Binding of hSIRPα.50A to hSIRPαV1 point mutants was tested using CELISA. To this end, CHO-K1 cells were transiently transfected, using Lipofectamine 2000, with cDNA encoding the full length open reading frame of hSIRPαV1 and mutants thereof, and hSIRPβ1 subcloned into the pCI-neo vector. Transfected cells were seeded in culture medium (DMEM-F12 (Gibco) supplemented with 5% New Born Calf Serum (BioWest) and Pen/Strep (Gibco)) in 96-well flat-bottom tissue culture plates and incubated at 37° C., 5% CO₂ and 95% humidity for 24 hours. Subsequently, culture medium was removed and cells were incubated for 1 hour at 37° C., 5% CO₂ and 95% humidity with purified hSIRPα antibodies (used at 10 μg/mL and dilutions thereof). Next, cells were washed with PBS-T and incubated for 1 hour at 37° C., 5% CO₂ and 95% humidity with goat-anti-mouse IgG-HRP (Southern Biotech). […] Reactions were stopped with 0.5 M H₂SO₄ and absorbances were read at 450 and 610 nm. […]

T1 sequence (P78324 31-504 limits assumed, change not shown): as the sequence (P78324 31-504) above

B1: hSIRPα.40A (antibody, mouse IgG1, kappa, V domains shown)
VH: EVQFQQSGTVLARPGTSVKMSCKASGSTFTSYWMHWVKQGPGQGLQWIGAIYPVNNDTTYNQKFKGKAELTVVTSTSTAYMEVSSLTNEDSAVYYCTRSFYYSLDAAWFVYWGQGTLVTVSA
VL: DIQMTQSPSSLSASLGERVSLTCRASQDIGSRLNWLQQEPDGTIKRLIYATSSLDSGVPKRFSGSRSGSDYSLTISGLESEDFVDYYCLQYASSPFTFGGGTKLEINR
notes: mouse antibody, full chains without signal peptide; also called mouse hSIRPα.40A
In turn, B1 returned an EC50 in the experiment with human SIRPα variant 1 [1] of 0.022 nM. Also, in experiment [2], the “EC50 (read off the curve)” value is around 1 nM. In experiment [3], the “IC50 (read off the curve)” value was around 0.4 nM.

B2: hSIRPα.50A (antibody, V domains shown)
VH: QVQLQQSGPELVKPGASVRISCKASGFTFTNYYIHWVKQRPGQGLEWIGWIYPGNVNTKYNEKFKAKATLTADKSSTTAYMQLSSLASEDSAVYFCARPTIIATDFDVWGAGTTVTVSS
VL: DIVMTQSHKFMSTSVGDRVNITCKASQGVGTAVGWYQQKPGQSPRLLIYWASTRHTGVPDRFTGSGSGTDFSLAISNVQSEDLADYFCQQYSTYPFTFGGGTNLEIK
notes: light chain constant domain not tied; also called mouse hSIRPα.50A; hSIRPα.50A.mIgG1
The molecule B2 gave an EC50 with human SIRPα variant 1 [4] of 0.535 nM.

Broadly, the EC50 is the concentration needed to bring the measured effect to its halfway point. The low end stands for an effect from little substance, the high end for a need for much substance. Usually EC50 (read off the curve) stands for the concentration needed to bring the measured effect to its halfway point. A low value points to greater potency.
